# Data: the Immune Epitope Database (IEDB)
# How the values were obtained:
# HLA-A*02:01 [1] = experiment: IEDB peptide-MHC binding, purified MHC/direct/fluorescence; filed as Kd, often an IC50 or EC50 that approximates it; ≥ and ≤ were set here for values at or beyond the usual limits of such assays
# HLA-B*15:01 [2] = experiment: as above
# HLA-A*26:01 = experiment: as above
# HLA-B*07:02 [3] = experiment: as above
# HLA-A*02:19 = experiment: as above
# HLA-B*46:01 = experiment: as above
# HLA-A*02:16 = experiment: as above
# HLA-A*03:01 = experiment: as above
# HLA-B*27:03 = experiment: as above
# HLA-A*02:03 = experiment: as above
# HLA-A*02:12 = experiment: as above
# HLA-A*02:11 = experiment: as above
# HLA-A*24:03 = experiment: as above
# HLA-B*39:01 = experiment: as above
# HLA-B*51:01 = experiment: as above; conditions: source organism: Vibrio vulnificus CMCP6
# HLA-B*35:01 [4] = experiment: as above
# HLA-B*57:01 = experiment: as above
# HLA-A*24:02 = experiment: IEDB peptide-MHC binding, purified MHC/competitive/fluorescence; ≥ and ≤ were set here for values at or beyond the usual limits of such assays
# HLA-B*07:02 [5] = experiment: as above; conditions: source organism: Zaire ebolavirus
# HLA-B*08:01 [6] = experiment: as above
# HLA-B*15:17 [7] = experiment: IEDB peptide-MHC binding, purified MHC/competitive/fluorescence; filed as Kd, often an IC50 or EC50 that approximates it; ≥ and ≤ were set here for values at or beyond the usual limits of such assays; conditions: source organism: Vaccinia virus
# HLA-B*35:01 [8] = experiment: as above; conditions: source organism: Vaccinia virus
# HLA-B*08:02 = experiment: IEDB peptide-MHC binding, purified MHC/direct/fluorescence; filed as Kd, often an IC50 or EC50 that approximates it; ≥ and ≤ were set here for values at or beyond the usual limits of such assays
# HLA-B*27:05 = experiment: as above
# HLA-A*26:03 = experiment: as above
# HLA-B*58:01 = experiment: as above
# HLA-A*11:01 = experiment: as above
# HLA-A*68:02 = experiment: as above
# HLA-A*69:01 = experiment: as above
# HLA-B*15:02 = experiment: as above; conditions: source organism: Aracatuba virus
# HLA-A*31:01 = experiment: as above
# HLA-B*48:01 = experiment: as above
# HLA-A*26:02 = experiment: as above
# HLA-A*01:01 = experiment: as above
# HLA-A*29:02 = experiment: as above; conditions: source organism: Burkholderia mallei ATCC 23344
# HLA-B*18:01 = experiment: as above
# HLA-A*30:01 = experiment: IEDB peptide-MHC binding, purified MHC/competitive/fluorescence; filed as Kd, often an IC50 or EC50 that approximates it; ≥ and ≤ were set here for values at or beyond the usual limits of such assays; conditions: source organism: Vibrio cholerae 2740-80
# HLA-B*40:01 = experiment: IEDB peptide-MHC binding, purified MHC/direct/fluorescence; filed as Kd, often an IC50 or EC50 that approximates it; ≥ and ≤ were set here for values at or beyond the usual limits of such assays; conditions: source organism: Vibrio cholerae
# HLA-B*44:02 = experiment: as above; conditions: source organism: Vibrio cholerae
# HLA-B*15:09 = experiment: as above; conditions: source organism: Vibrio cholerae V52
# HLA-B*08:03 = experiment: as above; conditions: source organism: Vibrio cholerae V52
# HLA-B*15:17 [9] = experiment: as above
# HLA-B*08:01 [10] = experiment: as above; conditions: source organism: Vibrio cholerae V52
# HLA-A*02:01 [11] = experiment: IEDB peptide-MHC binding, purified MHC/competitive/fluorescence; ≥ and ≤ were set here for values at or beyond the usual limits of such assays
# HLA-B*15:01 [12] = experiment: as above; conditions: source organism: Zaire ebolavirus
# [13] = source organism: Vibrio vulnificus CMCP6
# [14] = source organism: Zaire ebolavirus
# [15] = source organism: Aracatuba virus
# [16] = source organism: Burkholderia mallei ATCC 23344
# [17] = source organism: Vibrio cholerae
# [18] = source organism: Vibrio cholerae V52
# [19] = source organism: Salmonella enterica subsp. enterica serovar Typhimurium
# [20] = source organism: Vaccinia virus Copenhagen
sequence,measurement,setting,value
EMSLADYLY,Kd,HLA-A*02:01 [1]; [13],≥ 20 µM
same,Kd,HLA-B*15:01 [2]; [13],0.029 µM
same,Kd,HLA-A*26:01; [13],≥ 20 µM
same,Kd,HLA-B*07:02 [3]; [13],≥ 20 µM
same,Kd,HLA-A*02:19; [13],≥ 20 µM
same,Kd,HLA-B*46:01; [13],≥ 20 µM
same,Kd,HLA-A*02:16; [13],≥ 20 µM
same,Kd,HLA-A*03:01; [13],≥ 20 µM
same,Kd,HLA-B*27:03; [13],≥ 20 µM
same,Kd,HLA-A*02:03; [13],≥ 20 µM
same,Kd,HLA-A*02:12; [13],≥ 20 µM
same,Kd,HLA-A*02:11; [13],≥ 20 µM
same,Kd,HLA-A*24:03; [13],≥ 20 µM
same,Kd,HLA-B*39:01; [13],≥ 20 µM
same,Kd,HLA-B*51:01,≥ 20 µM
same,Kd,HLA-B*35:01 [4]; [13],0.027 µM
same,Kd,HLA-B*57:01; [13],≥ 20 µM
ERGVRLHPL,IC50,HLA-A*24:02; [14],44.3 µM
same,IC50,HLA-B*07:02 [5],≥ 95.4 µM
same,IC50,HLA-B*08:01 [6]; [14],8.92 µM
LLLLISLVY,Kd,HLA-B*15:17 [7],≥ 20 µM
same,Kd,HLA-B*35:01 [8],≥ 20 µM
same,Kd,HLA-A*02:01 [1]; [15],≥ 20 µM
same,Kd,HLA-B*15:01 [2]; [15],≥ 20 µM
same,Kd,HLA-B*08:02; source organism: Variola virus,≥ 20 µM
same,Kd,HLA-B*27:05; [15],≥ 20 µM
same,Kd,HLA-A*26:03; source organism: Variola virus,≥ 20 µM
same,Kd,HLA-B*58:01; [15],≥ 20 µM
same,Kd,HLA-B*07:02 [3]; [15],≥ 20 µM
same,Kd,HLA-A*11:01; [15],≥ 20 µM
same,Kd,HLA-B*46:01; [15],≥ 20 µM
same,Kd,HLA-A*68:02; [15],≥ 20 µM
same,Kd,HLA-A*69:01; [15],≥ 20 µM
same,Kd,HLA-B*15:02,4.57 µM
same,Kd,HLA-A*31:01; [15],≥ 20 µM
same,Kd,HLA-B*48:01; [15],≥ 20 µM
same,Kd,HLA-B*39:01; source organism: Variola virus,≥ 20 µM
same,Kd,HLA-A*26:02; source organism: Variola virus,≥ 20 µM
same,Kd,HLA-A*01:01; [15],≥ 20 µM
same,Kd,HLA-B*57:01; [15],≥ 20 µM
MSADNAGAL,Kd,HLA-A*02:01 [1]; [16],≥ 20 µM
same,Kd,HLA-A*02:19; [16],≥ 20 µM
same,Kd,HLA-A*02:16; [16],≥ 20 µM
same,Kd,HLA-A*03:01; [16],≥ 20 µM
same,Kd,HLA-A*29:02,≥ 20 µM
same,Kd,HLA-B*27:03; [16],≥ 20 µM
same,Kd,HLA-B*18:01; [16],≥ 20 µM
same,Kd,HLA-A*02:12; [16],≥ 20 µM
same,Kd,HLA-A*24:03; [16],≥ 20 µM
same,Kd,HLA-B*57:01; [16],≥ 20 µM
REVFDYLLP,Kd,HLA-A*30:01,≥ 20 µM
same,Kd,HLA-A*02:01 [1]; [17],≥ 20 µM
same,Kd,HLA-B*08:02; [18],≥ 20 µM
same,Kd,HLA-B*27:05; [17],≥ 20 µM
same,Kd,HLA-A*26:03; [18],≥ 20 µM
same,Kd,HLA-B*58:01; [17],≥ 20 µM
same,Kd,HLA-B*07:02 [3]; [17],≥ 20 µM
same,Kd,HLA-A*11:01; [17],≥ 20 µM
same,Kd,HLA-A*68:02; [17],≥ 20 µM
same,Kd,HLA-A*69:01; [17],≥ 20 µM
same,Kd,HLA-B*40:01,0.077 µM
same,Kd,HLA-B*18:01; [17],≥ 20 µM
same,Kd,HLA-B*44:02,≥ 20 µM
same,Kd,HLA-A*31:01; [17],≥ 20 µM
same,Kd,HLA-B*48:01; [17],≥ 20 µM
same,Kd,HLA-B*15:09,≥ 20 µM
same,Kd,HLA-B*08:03,≥ 20 µM
same,Kd,HLA-B*39:01; [18],≥ 20 µM
same,Kd,HLA-B*15:17 [9]; [17],≥ 20 µM
same,Kd,HLA-A*26:02; [18],≥ 20 µM
same,Kd,HLA-A*01:01; [17],≥ 20 µM
same,Kd,HLA-B*57:01; [17],≥ 20 µM
same,Kd,HLA-B*08:01 [10],≥ 20 µM
VMNHKNKFM,IC50,HLA-A*02:01 [11]; [14],3.51 µM
same,IC50,HLA-B*15:01 [12],18 µM
same,IC50,HLA-A*24:02; [14],2.14 µM
same,IC50,HLA-B*08:01 [6]; [14],8.29 µM
WPVMQWLTA,Kd,HLA-A*02:01 [1]; [19],≥ 20 µM
same,Kd,HLA-B*15:01 [2]; [19],8 µM
same,Kd,HLA-A*26:01; [19],≥ 20 µM
same,Kd,HLA-B*07:02 [3]; [19],0.289 µM
same,Kd,HLA-A*02:19; [19],≥ 20 µM
same,Kd,HLA-B*46:01; [19],≥ 20 µM
same,Kd,HLA-A*02:16; [19],≥ 20 µM
same,Kd,HLA-A*03:01; [19],≥ 20 µM
same,Kd,HLA-B*27:03; [19],≥ 20 µM
same,Kd,HLA-B*18:01; [19],≥ 20 µM
same,Kd,HLA-A*02:03; [19],≥ 20 µM
same,Kd,HLA-A*02:12; [19],≥ 20 µM
same,Kd,HLA-A*02:11; [19],≥ 20 µM
same,Kd,HLA-B*15:17 [9]; [19],≥ 20 µM
same,Kd,HLA-B*35:01 [4]; [19],0.024 µM
same,Kd,HLA-B*57:01; [19],≥ 20 µM
YFLKIKVTA,IC50,HLA-A*02:01 [11]; [20],6.34 µM
same,IC50,HLA-A*24:02; [20],3.76 µM
same,IC50,HLA-B*08:01 [6]; [20],8.88 µM
